Reference: the Human Domainome abundance scans (Beltran et al. 2025)
± gives the uncertainty stated by the source.

B1: Chromodomain-helicase-DNA-binding protein 4, residues 444 to 496; numbered along this chain, Q14839 (parent)
chain: EDDHHMEFCRVCKDGGELLCCDTCPSSYHIHCLNPPLPEIPNGEWLCPRCTCP

Variants of: B1
Assay: abundance fitness (aPCA) (normalised: wild type 0, dead -1); higher = more abundant; growth selection in yeast, the domain comes from the species named
Conditions: Homo sapiens

Abundance fitness, by site and new letter:
E1: R -0.625 ± 0.28; S -0.507 ± 0.18; T -0.221 ± 0.19; V -0.059 ± 0.054; W -0.898 ± 0.43; Y -0.175 ± 0.1
D2: A 0.05 ± 0.057; C -0.425 ± 0.13; E 0.188 ± 0.073; F 0.463 ± 0.069; G 0.26 ± 0.082; H -0.036 ± 0.057; K 0.378 ± 0.043; L 0.163 ± 0.05; M 0.278 ± 0.077; N 0.091 ± 0.056; R 0.033 ± 0.065; S 0.202 ± 0.045; V 0.217 ± 0.059; W -0.334 ± 0.093; Y 0.016 ± 0.076
D3: A -0.211 ± 0.045; C 0.27 ± 0.068; E -0.187 ± 0.057; G -0.292 ± 0.057; H 0.1 ± 0.075; I 0.393 ± 0.069; K 0.304 ± 0.073; L 0.342 ± 0.046; M 0.397 ± 0.065; P -0.174 ± 0.064; Q 0.221 ± 0.062; R 0.06 ± 0.038; S 0.105 ± 0.049; T 0.277 ± 0.05; V -0.174 ± 0.05; W 0.201 ± 0.045; Y 0.319 ± 0.069
H4: A -0.14 ± 0.042; C 0.032 ± 0.042; D 0.125 ± 0.091; E -0.126 ± 0.048; F 0.301 ± 0.064; I 0.025 ± 0.056; K 0.119 ± 0.058; L -0.162 ± 0.043; M 0.107 ± 0.046; N 0.197 ± 0.058; P -0.294 ± 0.04; Q -0.058 ± 0.055; R -0.04 ± 0.051; S -0.409 ± 0.045; T -0.004 ± 0.041; V -0.008 ± 0.042; W -0.126 ± 0.059; Y 0.078 ± 0.088
H5: A 0.092 ± 0.047; C 0.068 ± 0.085; E 0.116 ± 0.055; F 0.219 ± 0.098; G 0.106 ± 0.044; I 0.165 ± 0.084; K 0.199 ± 0.057; L -0.305 ± 0.044; M -0.12 ± 0.067; N -0.006 ± 0.077; P -0.11 ± 0.051; Q 0.074 ± 0.067; R 0.096 ± 0.043; S -0.129 ± 0.048; T 0.019 ± 0.057; V -0.135 ± 0.053; W 0.02 ± 0.054; Y 0.097 ± 0.075
M6: A 0.023 ± 0.047; C -0.207 ± 0.05; D 0.023 ± 0.05; F -0.204 ± 0.04; G -0.056 ± 0.049; H -0.713 ± 0.043; I -0.021 ± 0.048; L -0.665 ± 0.041; N -0.055 ± 0.062; Q -0.508 ± 0.042; R -0.477 ± 0.051; S -0.147 ± 0.038; T 0.028 ± 0.047; W -0.231 ± 0.04
E7: A -0.366 ± 0.07; C -0.15 ± 0.086; D -0.048 ± 0.064; F -0.002 ± 0.06; G -0.239 ± 0.085; H -0.22 ± 0.067; I -0.481 ± 0.072; K -0.492 ± 0.061; L -0.121 ± 0.042; M -0.433 ± 0.05; N -0.664 ± 0.065; P -0.401 ± 0.052; Q -0.224 ± 0.074; R -0.174 ± 0.069; S -0.364 ± 0.061; T -0.618 ± 0.073; V -0.205 ± 0.058; W -0.599 ± 0.095; Y -0.813 ± 0.055
F8: A -0.103 ± 0.061; C -0.048 ± 0.059; D -0.166 ± 0.06; E 0.138 ± 0.082; G 0.086 ± 0.071; H -0.249 ± 0.043; I -0.019 ± 0.05; K -0.103 ± 0.062; L -0.164 ± 0.051; M -0.073 ± 0.063; N -0.044 ± 0.069; P -0.388 ± 0.045; R -0.033 ± 0.047; S -0.124 ± 0.045; T -0.091 ± 0.055; V 0.012 ± 0.047; W -0.041 ± 0.062
C9: A -0.777 ± 0.11; D -0.601 ± 0.11; E -0.483 ± 0.1; G -0.535 ± 0.094; H -0.79 ± 0.064; I -0.827 ± 0.083; K -0.54 ± 0.051; M -0.98 ± 0.1; N -0.689 ± 0.054; P -0.797 ± 0.052; Q -0.668 ± 0.07; R -0.571 ± 0.066; S -0.849 ± 0.068; T -0.815 ± 0.061; V -0.988 ± 0.11; W -0.844 ± 0.15; Y -0.979 ± 0.13
R10: A -0.17 ± 0.042; C 0.003 ± 0.077; D -0.142 ± 0.087; E -0.07 ± 0.09; F 0.059 ± 0.043; G -0.349 ± 0.062; H -0.137 ± 0.051; I -0.014 ± 0.056; K 0.124 ± 0.045; L -0.021 ± 0.043; M -0.301 ± 0.074; N 0.003 ± 0.044; P -0.274 ± 0.049; Q 0.086 ± 0.066; T 0.028 ± 0.061; V -0.056 ± 0.058; W 0.122 ± 0.088; Y -0.009 ± 0.064
V11: A -0.316 ± 0.065; C -0.255 ± 0.067; D -0.103 ± 0.069; F -0.359 ± 0.067; G -0.135 ± 0.057; I -0.074 ± 0.083; L -0.214 ± 0.048; M -0.026 ± 0.061
